The values that follow are results of earlier work, collected in publication PMC3538140.

In this series the target is TRAIL-R1 (Homo sapiens) (UniProt O00220).
Sequence of UniProt O00220 (O00220 24-468): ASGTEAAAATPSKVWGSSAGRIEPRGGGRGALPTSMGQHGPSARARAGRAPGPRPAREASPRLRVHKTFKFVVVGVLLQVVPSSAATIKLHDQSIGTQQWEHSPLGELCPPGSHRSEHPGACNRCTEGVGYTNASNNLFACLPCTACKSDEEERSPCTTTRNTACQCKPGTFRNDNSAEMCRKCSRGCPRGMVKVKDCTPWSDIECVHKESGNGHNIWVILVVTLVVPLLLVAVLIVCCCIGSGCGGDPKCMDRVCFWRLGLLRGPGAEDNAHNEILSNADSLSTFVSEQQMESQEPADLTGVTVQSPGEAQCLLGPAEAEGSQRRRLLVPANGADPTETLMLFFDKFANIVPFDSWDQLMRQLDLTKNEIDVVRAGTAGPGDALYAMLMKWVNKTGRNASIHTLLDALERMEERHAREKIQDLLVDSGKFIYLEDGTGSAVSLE

As to TRAIL (from UniProt P50591), the Kd (as a rule, the concentration at which binding is half-saturated) is 70 nM.
